According to the DeepSol protein solubility set:

assay: soluble on expression in E. coli; label from the status in PepcDB or PDB records

Q: With “MSLEWHFSLKEPHVLLFLPFEKYALPYPDPSQSWLSFGLTEIPVPEWTKNLEIITPWRPDFLKFANAQFRCSPEINQTCTHDGALLQLSKYRGFNQNCFLDLLERVKPGGWIIIGGNKTSGADSMMKWVKKIVPITNKFSKNHGLVFWIQVPQQIEKQNTAQLRSPPLTFENKFQTTSGMFSHGRIDPGSAVLASHMCKTISGKTADFGAGWGFLSHAALERSEKLTALDLYEADYNALKAAKQHLKHITTSLPIHFYWHDLVHEPITNLYDTIISNPPFHTQQTTDVSLGQHFIINAAKYLKPGGNLLLVANRHLPYETLLKRLFRTVLIYEKAHGFKVIEAYREGHHHHHH” as the sequence, how does the “soluble on expression in E. coli” value read?
A: soluble

Q: With “MGSDKIHHHHHHMVYPVRIDTIRYDRKFSFVVFVEDIQSSHQIIDNIMDIGDEIGYPYEVIVSAKDQVTDDYYSDEIKVVGTGLNRRSDGIQRSLKSSTGNYFVIFDPNIRYSLSYADLLYGYAETGSSEVLVSEILGFQTDVLRSVGGWRDLSYGEDIDLLVRVIDNYGVITYPFYGLKQIDLTELIKSTDSIRSGKIKKLRDLIISCNFKYQDIKTIAKILDKSSRISRLLYLSKILSNFARIRPYERPKNNYLTIMERIMESILAKEFLKITTVDFKPSLAISTKTAEYLAGESPLWRITEENGNFVREKI” as the sequence, how does the “soluble on expression in E. coli” value read?
A: not soluble

Q: Which “soluble on expression in E. coli” value does the source give for “MSDIEVFELDDNFDPLEDIGLVDEEDIEHHDYQMPIPDAELSVVPEPVQLTPREKMDKLIAGIPGHKQRIVEVIRICEEPLTASEIEERLNDTYPQSASVYDAARIADLLVEAEGLVRLNAEEGADEETVAAPKTDTEHPEADVDAVVTPHAGVDETGDYLEVQPPEPSRYVATDEGLAFVAAMTDMAPVMELLEKEPRYLPIYERILRMTSNEEGCGKAELNKAIDSDELCQEPRRYTEYFLFRLQEVAAVRWNRVWYATDLGTSALNSNIFTK” here?
A: not soluble

Q: With “MSLHGVPFGTVPPMGTIGLIAAMPDEIRPFLRLASPAARLHGGRFPIWRLRVGNDDIVLVESGMGIDRATAATDALVAAASPVAILSFGFGGAALPGLKVGDLAVGMTSWFAGTEGIVLRRGIDRNLAEKLAEELNRICNGVTRGEIITSARILKKGDLAHSLPNGISSPILDMETAAVAEAAHRRGIPIVALRAISDDAEEELSFSLDEFTDDDMAIRPRKVLATIARKPWIIPQLLRLARNSRIAGKRLAQGVLATAEFLSRGEGHHHHHH” as the sequence, how does the “soluble on expression in E. coli” value read?
A: not soluble

Q: For “IRSIWENNGFGLMSSKTMTDFDYWISDFEKIGASQKEAEQLIVKAIEIAIDANARNYNYINAILKDWEQRGFKSVEEREA”, which “soluble on expression in E. coli” value is on record?
A: soluble

Q: With “MGSDKIHHHHHHMANLNDFTFFVHVVDHGGFAPAARALNLPKSTLSKRVAELEKDLGVRLINRTSRHFAVTESGKDFYRHAAAMMIEAEAAENVVRGRLAEPSGTVRITASVPTAQLSLAPLLPQLALAYPKLRVTLHATDRFVDVIQDGFDLAVRDHFAPLPDSGLVQRRIGFQAKLIVASPLYLQGNGTPERPEDLDHHDGLLTSLASEGWVMERADGSTVSVSPRPRFVADESRVLREAALAGLGITTLPGKLCQQEIESGTLIRILPEWTAGKVMTTILMPHRRGQLPSVRATVDFIAERLVDG” as the sequence, how does the “soluble on expression in E. coli” value read?
A: not soluble

Q: With “MQNAVKLDEIDHKIMNLLYENARISVSEIGRIISMTQPAVKERINKLEDQGVIAAYRTKFEPSKINKNIQAFIMFKTSQCSDFIQFCNAAPEVTDLYRISGEFNYMMKVMSDSMDSLAAFLDSLMQFGLSSPLIVLKSEFEEKLSF” as the sequence, how does the “soluble on expression in E. coli” value read?
A: soluble

Q: Which “soluble on expression in E. coli” value does the source give for “MGSDKIHHHHHHMTQLIMRPRPGKIKLGLKASQAPAQLMDRLQYRPEVFEFFTSATDFEPEAFQTLKTAVQFVKTTVTEQIVIHHPMSYQGVHLDQLLDPHREAAAYQFLQTSTAQLLALATELDVKVLVHGGYGSDSGRLIDEYESLQVARDVVFERLDNLVRQASGHVVIENGVTASFMYGDPQLDERIIQHHYPLVCDLSHVFIALHGDMELTMLALKRLAPLIQHYHLVDSMGTRHDSLPLGQGLIDWQRVLPVLNPHATMIYEVPDETDATCANMLSSYHYLRALELRSIEGGQAND” here?
A: not soluble

Q: For “MGSDKIHHHHHHMENQPNTRSMIFTLYGDYIRHYGNVIWIGSLIRFLQEFGHNEQSVRAAVSRMSKQGWIQSEKKGNKSYYSLTDQGRKRMAEAAQRIYKLEAPSWDEKWRLLIYSIPEEKRSLRDELRKELVWSGFGLLANSCWITPNPLEEQVETLIEKYEISPYVHFFCADYRGMGEPKTLIEKCWDLDEINEKYLAFIQKYSQKYVIDKNKIEKGEMSDGACFVERTLLVHEYRKFLFIDPGLPQELLPEKWLGDSAAHLFADYYRTLAEPARRFFESVFAEGNSLVKKDKEYNFLDHPFMSESQS”, which “soluble on expression in E. coli” value is on record?
A: not soluble

Q: With “MSGGQQERHVLILNTVGGRRAIALEAAAYSLGRDESNAIVIDFETVSRQHAILLRVPVPGTTSYRYRLVDGNANGKPSTNGTFVNGKRISSHELQHGDVILFGRKAKASYLLLSMADTEFSQYLQSIAFQSIKSDLRGAKETLVGMELSGELRRTPNRELVAAGATQLHPELEHHHHHH” as the sequence, how does the “soluble on expression in E. coli” value read?
A: soluble

Q: For “MSLKKSPLTIVHLTDIHYDPEYVVGVNADCKAEACCRTLPDLAPATPETAAGYWSDYRDCDTPWHGVVDVMEHIRRQHPKIDAIYFTGDIVHHFTWNTSIETNEGAMRQVFDLMKRVFPGVPLYPVLGNHESHPANLYAPHDVEASYRMDYLYDFIADQWADWLPIKDIRPTLTEGGYYTVRTPYGVRIIGLNNNPCFVHNFWLFYSLDYFMPQLQWLHDTLLQAEWDNERVHILAHVPSYDDSCFIGWTREYRKIVERFAHIIAGQFNGHSHVDEFNLYYRRDDPSRAVSVAWNGGSTTTFTKLNPNYKVFQFDPVTFEPLEQETWMYNLTDANLTPDQRPSWYRLYSFKSYYQLPDLSVDSLHRLVQRFAQSEQQLHRYWQAKQKYSDPLLQEGCTSTCLRNALCAIVRTEHDDERACELLYERAAQSEGHHHHHH”, which “soluble on expression in E. coli” value is on record?
A: not soluble

Q: For “MAARQQLALLSVSEKAGLVEFARSLNALGLGLIASGGTATALRDAGLPVRDVSDLTGFPEMLGGRVKTLHPAVHAGILARNIPEDNADMNKQDFSLVRVVVCNLYPFVKTVSSPGVTVPEAVEKIDIGGVALLRAAAKNHARVTVVCDPADYSSVAKEMAASKDKDTSVETRRHLALKAFTHTAQYDAAISDYFRKEYSKGVSQLPLRYGMNPHQSPAQLYTTRPKLPLTVVNGSPGFINLCDALNAWQLVKELKQALGIPAAASFKHVSPAGAAVGIPLSEEEAQVCMVHDLHKTLTPLASAYARSRGADRMSSFGDFIALSDICDVPTAKIISREVSDGVVAPGYEEEALKILSKKKNGGYCVLQMDPNYEPDDNEIRTLYGLQLMQKRNNAVIDRSLFKNIVTKNKTLPESAVRDLIVASIAVKYTQSNSVCYAKDGQVIGIGAGQQSRIHCTRLAGDKANSWWLRHHPRVLSMKFKAGVKRAEVSNAIDQYVTGTIGEDEDLVKWQAMFEEVPAQLTEAEKKQWIAKLTAVSLSSDAFFPFRDNVDRAKRIGVQFIVAPSGSAADEVVIEACNELGITLIHTNLRLFHH”, which “soluble on expression in E. coli” value is on record?
A: soluble

Q: For “MDSDSGEQSEGELSPGHESFNSKSLALQAQKKILSKMATMAVANLLTDDTSSEILDELYKASREYTKSKKEAHKIIKDVIKIALKIGILYRNHQFSPEEMETVERFKKKMNQAAMTVVSFYEVEYTFDRGILSELLLECRDLLHELVEHHLTMRSHGRIDHVFNHFADVDFLTELYGPSEDYRLNLRKICDGINKLLDEGTL”, which “soluble on expression in E. coli” value is on record?
A: not soluble

Q: Which “soluble on expression in E. coli” value does the source give for “CPRMGHVFPLETRPYNQGSRLTAYELVYDKIPSTLITDSSIAYRIRTSPIPIKAAFVGADRIVRNGDTANKIGTLQLAVICKQFGIKFFVVAPKTTIDNVTETGDDIIVEERNPEEFKVVTGTVINPENGSLILNESGEPITGKVGIAPLEINVWNPAFDITPHELIDGIITEEGVFTKNSSGEFQLESLF” here?
A: soluble

Q: For “MLEEPFFPYQSLASDLLAFLPEDSTDGSHDLSHIHRVWMNVRRLQDKEGGDLEALLAATLLHDCVAVEKNSPLRSQASTLSANKAASILQRMGWPAPRIELVAHAVQAHSFSAGVEPLTLEARILQDSDRLDAIGMIGVARCFYIAGRMGSALYDITNPTAIGRPYQDKRFTIEHFHTKLLSLASGFQTVEGARLAAVRHARLKDFLDGFMEEIGAPDLEHHHHHH”, which “soluble on expression in E. coli” value is on record?
A: soluble

Q: With “MSLATKFPKNFKLATATAAYQIEGAKDLNGRGFSTWDAIRLEPGRILDNSDPDLSCDGLLKYKEDVALLAEIGVTNYRFSISWSRILPDGTLSTINEEGIKFYRDLCLLLKENNIEPVVTLFHFDMPLAIYDNGTAWLNRENCEHFEKFADLCFQKFGDLVKTWITYNEINCQAWGSIVKVEGEFWLCPERPEIENHKQAPYFGAANMLLTHAKIYRNYDQNYKPTQHGILGITNGGRFCFPATDSQEDIEACNRARDWLFNFTIEPILSGSGDFPVLMRERMPFIPKFSEEEKEIIKGSTDFIGINYYLSFLVRAPKDGEKASSQSQHDGGYVFVEGKWDKICGETWIRYAPDGLLKILRYVKEKYANTPVFITENGCMDIVGQDQEDAFHDQHRIDYISGHLEAVAKALDEGCNVIGYTVWTLMDNFEWDDGFELKFGLCEVDFESPDKTRTMKKSAYFYKEFIKEFKDFHGI” as the sequence, how does the “soluble on expression in E. coli” value read?
A: not soluble

Q: With “MTQFETERLILRPMTAADHDALADMIFDPQVVAYLRYRRVQSPAAFEQLFTTHFLADTTTVFGIERRRDHQLIGFYEFHGSGATGELTYALSPAAWGHGYVAEAGNCLMHYGFETLNYETIEAHYASANPNSGRVMAKMGMQAAGELHTFTSDKGEVIHVMRYLLTKATWRQLSA” as the sequence, how does the “soluble on expression in E. coli” value read?
A: not soluble

Q: For “MGSDKIHHHHHHMGIRAGESGNSLSKALLEIEKEQPAPCYLLYGDAEYEISDAFTKIIDALLSPEDQALNLFVLDGEDEDPERIGENLMTPPLLPGRKVVAVRRTQLFSSRKTLKDLVKRIREQLNGKPQQAAKTFMTFLSLAGWNLEDFKGDGWKAISDKDWQTTVEGDAGEDRIKWLPQVVEVCVDLGLKGRSATGGGTDHLEAILRDGLPAGNVLLLTAESVDKRKKLFKTISELGRVLPFVVEKGEARQKNTLMDSARDLLATRGKRMSSGAWEVLGRKTGFQLRNSMAALEKLITYTGERKTIEVSDVEEVISRTREDKVFDLTAALAEKNLKGALSVLRSLREQGIHSLVILSMIVREMRLLLHARQLRNEGALPGYQPRMDYGRFQKSIYPTVKGWAGQAGDVHIELADSHPYVVFNILRNSENFSEKRLKRHLEDLLAMDLAMKSTAKDADLMLERFLIDVCRP”, which “soluble on expression in E. coli” value is on record?
A: not soluble

Q: With “MSSTPSLSHSPAELYRAWQDLRAERPQLRARDAAALLQVSEGELVASRVGIDAVRLRPDWAALLPALGELGPIMALTRNEHCVHERKGPYREVTVSANGQMGLVVSPDIDLRLFLGGWNAVFAIAEETARGTQRSIQVFDQQGVAVHKVFLAEASDVRAWEPLVERLRAAEQDAVLALHEPRAPAAALVDAQIDAAALREGWAALKDTHHFHALLKKHGAQRTQALRLAGGEWAERLDNGDLAKLFEAAAESGLPIMVFVGNAHCIQIHTGPVCNLKWLDDWFNVLDPEFNLHLKTTGIAELWRVRKPSTDGIVTSWEAFDADGELIVQLFGARKPGEPERDDWRELAESFKAL” as the sequence, how does the “soluble on expression in E. coli” value read?
A: not soluble

Q: Which “soluble on expression in E. coli” value does the source give for “MSLTKPTIALTELVEKGADADLLKQMIQFVAQRMMEFDVEGLCGAGFDVKSPDRTNSRNGYRDRLWQTRAGDVDLKIPKLRQGNYFPGFLEPRRTAEKAMAAVIQEAYIQGVSTRSVDELVKAMGMTGISKSQVSRLAGEIDERVHAFLDRPLEGDWPYLWIDATYVKVREAGRIVSVVVIIAVAVNTDGGREVLGMRVGPSEAEPFWTDFLRSLMRRGLRGVKLVISDAHEGLKAAASKVFNATWQRCRVHFMRNAMAHVGKGQRTMVAALLRTVFAQDSRAECHQQWRLVADQLREKYPKIATLMDGCEDEVLAHMAFPKAHRQQLHSTNPLERLNAEIKRRTDVVGIFPNDPAITRLVGAMLLEQNDEWCLQRRYMQLEAFEAVSDNPQAKLSAVINEGHHHHHH” here?
A: soluble
